Common to all, as to assay: SPR; biotinylated SIRPα variants bound to streptavidin immobilised on a BIAcore CM5 chip, BIAcore 3000, 37°; dilutions of monomeric recombinant CD47 extracellular domain passed over; affinity from equilibrium binding
(In general: SPR reads the build-up and loss of mass on a sensor chip optically.)

The target of test [1] is NOD mouse SIRPα + SE mutant, N-terminal domain (d1) (mouse).
The target of test [2] is NOD mouse SIRPα + SE mutant, three extracellular IgSF domains (3d) (mouse).
Test [3] concerns the target NOD mouse SIRPα, N-terminal domain (d1), wild type (mouse).
Test [4] deals with human SIRPα V2, three extracellular IgSF domains (3d) (human) (UniProt P78324).

Some results are limits rather than exact numbers.

Chain of mouse CD47 IgSF domain, monomeric recombinant extracellular domain (Q61735 19-139): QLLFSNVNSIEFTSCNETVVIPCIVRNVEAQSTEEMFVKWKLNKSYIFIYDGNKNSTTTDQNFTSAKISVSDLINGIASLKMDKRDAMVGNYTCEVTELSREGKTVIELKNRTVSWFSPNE
Chain of human CD47 IgSF domain, monomeric recombinant extracellular domain (Q08722 19-136): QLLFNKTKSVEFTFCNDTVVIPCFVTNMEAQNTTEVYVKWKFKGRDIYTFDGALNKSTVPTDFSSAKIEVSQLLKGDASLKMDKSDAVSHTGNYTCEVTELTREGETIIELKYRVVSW
Chain of NOD mouse SIRPα, N-terminal domain (d1), wild type (mouse) (P97797 1-148): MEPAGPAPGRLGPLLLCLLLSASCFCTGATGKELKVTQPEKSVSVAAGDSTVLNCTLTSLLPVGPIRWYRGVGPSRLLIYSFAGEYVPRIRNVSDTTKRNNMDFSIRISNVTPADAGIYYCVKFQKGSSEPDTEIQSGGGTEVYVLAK

The term Kd denotes the equilibrium constant for the complex coming apart. Regarding “mouse CD47 IgSF domain, monomeric recombinant extracellular domain (from UniProt Q61735 19-139) (domain or fragment)”, the Kd in test [1] is 11.8 µM; in test [2] it was 8.6 µM; in test [3], 4.7 µM; in test [4] it was more than 30 µM.

In the case of “human CD47 IgSF domain, monomeric recombinant extracellular domain (from UniProt Q08722-1 19-136) (domain or fragment)”, the dissociation constant Kd stood at 9.4 µM in test [1], 7.6 µM in test [2], 0.08 µM in test [3] and 0.6 µM in test [4].

(Values after PMC4137956.)
